These results are taken from the nanobody polyreactivity screen of Harvey et al. (2022).

The nature of the data set: yeast display, Sf9 membrane polyspecificity reagent, FACS + sequencing; frameworks hold sequencing errors. The procedure, abridged:
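After 36–48 hours of galactose induction, yeast (Saccharomyces cerevisiae BJ5465) displaying a synthetic nanobody library were stained at 4 °C for 1 hour with 10% biotinylated, detergent-solubilized Sf9 membrane reagent. Streptavidin microbeads enriched the stained cells before FACS sorting into low and high (top ~1%) gates on anti-HA and streptavidin fluorescence. Each clone's polyreactivity label reflects its gate of origin.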
“QVQLVESGGGLVQAGGSLRLSCAASGSTFYNNAMGWYRQAPGKERELVAVITDSGGRTYYADSVKGRFTISRDNAKNTVYLQMNSLKPEDTAVYYCAVVAPGGGDDYWGQGTQVTVSS”: the “polyreactivity (PSR sort gate)” value is “low polyreactivity”.

Regarding “QVQLVESGGGLVQAGGSLRLSCAASGSIFFYYAMGRYRQAPGKEMELVATINIGAGSTNYADSVKGRFTISRDNAKNTVYLQMNSLKPEDTAVYYCAADVNFYQDYIYLTDYDYWGQGTQVTVSS”, the “polyreactivity (PSR sort gate)” value was “low polyreactivity”.

For the sequence “QVQLVESGGGLVQAGGSLRLTCAASGRIFPYMGWYRQAPGKERELVAAISSRGGNTYYADSVKGRFTISRDNAKNTVYLQMNSLKPEDTAVYYCNKVKYTWYDWGQGTQVTVSS”, the “polyreactivity (PSR sort gate)” value is recorded as “high polyreactivity”.

Take “QVQLVESGGGLVQAGGSLRLSCAASGRISVRIYAMGWYRQAPGKERELVAIISRSGGSTYYADSVKGRFTISRDNAKNTVYLQMNSLKPEDTEVYYCNARWSFSYTVWVDSYWCLDDYWGQGTQVTVSS”: the “polyreactivity (PSR sort gate)” value is given as “high polyreactivity”.

Take “QVQLVESGGGLVQAGGSLRLSCAASGSTFEFNDMGRYRPAPGKERELVASIRHSDGSRYYADSVKGRFTISRDNAKNTVYLQMIILKPEDTAVYDCNKAFQWSGGQVSYDYWGQGTQVTVSS”: the “polyreactivity (PSR sort gate)” value was “low polyreactivity”.

For “QVQLVESGGGLVQAGGSLRLSCAASGFIFGYYAMGWYRQAPGKERELVAAITGGGSTYYADSVKGRFTISRDNAKNTVYLQMNSLKPEDTAVYDCNADYGDGEYDYWGQGTQVTVSS”, the “polyreactivity (PSR sort gate)” value is on record as “low polyreactivity”.

Take “QVQLVESGGGLVQAGGSLRLSSAASGFTLYRNAMGWNRQAPGKEREFVASITRSGGSTSYADSVKGRFTISRDNAKNTVYLQMNSLKPEDTAVYYCAAAYEYYRWPSEYNYWGQGTQVTVSS”: the “polyreactivity (PSR sort gate)” value was “low polyreactivity”.

For “QVQLVESGGGLVQAGGSLRLSCAASVSTFYGYAMGWYRQAPGKERELVAAITSTVITDYADSVKGRFTISRDNAKNTVYLQMNSLKPEDTAVYYCSADRYDSSQFYYWGQGTQVTVSS”, the “polyreactivity (PSR sort gate)” value is given as “low polyreactivity”.

With “QVQLVESGGGLVQAGGSLRLSCAASGSTFDHNVMGWYRQAPGKERELVAAISGSGGSTYYADSVKGRFTISRDNAKNTVYLQMNSLKPEDTAVYYCAARYYVGHRGYYSWGQGTQVTVSS”, the “polyreactivity (PSR sort gate)” value was “high polyreactivity”.

Regarding “QVQLVESGGGLVQSGGSLLLSCAPSGSTFYEYALGGYRQAPGKDRELVAAITSGGSTYYADSVKGRFTISRDNAKNNDYLQMNSLKPEETAVYYCAADPRIRRGDRSTHGYDYWGQGTQVTVSS”, the “polyreactivity (PSR sort gate)” value is “low polyreactivity”.

For the sequence “QVQLVESGGGLVQAGGSLRLSCAASGFTFYYNAMGWYRQAPGKERELVAAMSGRGGSTHYADSVKGRFTISRDNAKNTVYLQMNSLKPEDTAVYYCNKVVRGSPEFDYWGQGTQVTVSS”, the “polyreactivity (PSR sort gate)” value is on record as “high polyreactivity”.

For the sequence “QVQLVESGGGLVQAGGSLRLSCAASGSIFRRNAMGWYRQVPGKERELVAAITWRGDRTYYADSVKGRFTISRDNAKNTVYLQMNSLKPEDTAVYYCNKLGRIQYDYWGQGTQVTVSS”, the “polyreactivity (PSR sort gate)” value was “high polyreactivity”.

Consider “QVQLVESVGGLVQAGGSLRLSCAASGRTFAYTAMGWYRQARGKDREWLAAITWSGDSTYYADSVKGRFTISRDNAKNTVSLQKNSLKPEDTAVYYCAADYFGGPSYEFVYWGQGTQVTGSS”, for which the “polyreactivity (PSR sort gate)” value is recorded as “low polyreactivity”.

On to “QVQLVESGGGIVQAGGSLRLSCAASGSNFTAYDMGWYRPAPGKDRELVAALNVSAGTTYYADSVKGRFTISRDHAKNTVYLQMNSLKPEDTAVYYCATYRSPTPYTRENIYAYWGQGTLVTVSS”, for which the “polyreactivity (PSR sort gate)” value is “low polyreactivity”.

Regarding “QVQLVESGGGLVQAGGSLRLSCAASGSTFYPYAMGWYRQAPGKERELVAAISISGGITYYADSVKGRFTISRDNAKNTVYLQMNSLKPEDTAVYYCAAEYLAVSGYWYDYWGQGTQVTVSS”, the “polyreactivity (PSR sort gate)” value is on record as “high polyreactivity”.

For “QVQLVESGGGLVQAGGSLRLSSAASGSIFDKNAMGWYRQAPGKERELVAAIRRTSTTYYADSVKGRFTISRDNAKNTVFLKMNSLKPEDTAVYYCAATYGSGYWYPRYYYWGQGTEVTVSS”, the “polyreactivity (PSR sort gate)” value was “high polyreactivity”.

With “QDQHVESGGGLVHAGGSLRLSCAASGRIFKVYAMGWYRQPPGKERQLVASIRWNTGSTYYADSVKGRFTISRDNAKNTVYLQMNSLKPEDTAVYYCNSRGYYQGRYGYWGQGTQVTVSS”, the “polyreactivity (PSR sort gate)” value is given as “high polyreactivity”.

For the sequence “QVQLVESGGGLVQAVGSLRLSCADSGRIFYGYDMGWYRQAPGKERELVAAITWRGGTFYADSVKGRFTISRDNEKKTVYLQMNSLKPEDTAVYYCSARVSSYGRYDYWGQGTQVTVSS”, the “polyreactivity (PSR sort gate)” value is recorded as “high polyreactivity”.

Consider “QVQLVESGGGLVQAGGSLRLSCAASGSIFYVNTMGWYRQAPGKEREFVAAISGSGGSTRYADSVKGRFTISRDNAKNTVYLQMNSLKPEDTAVYYCAADRYTYIWYHIYDYWGQGTQVTVSS”, for which the “polyreactivity (PSR sort gate)” value is “low polyreactivity”.

As for “QVQLVESGGGLVQAGGSLRLSCAASGFTFSKNTMGWYRQAPGKERELVAVITRGGGTYYADSVKGRFTISRDNAKNTVYLQMNSLKPEDTAVYYCAVKRNTAYRQAYYLDDYWGQGTQVTVSS”, the “polyreactivity (PSR sort gate)” value is reported as “high polyreactivity”.

Regarding “QVQLGESGGGLVQAGGSLRLSCAASGIIFISYDMGWYRQAPWKERELVARINWDGGSTYYADSVKGRFTISRDNAKNTVYLQMNSLKPEDTAVYYCAAGFVGTNYPLQGFSYEYWGQGTQVTVSS”, the “polyreactivity (PSR sort gate)” value is recorded as “low polyreactivity”.

On to “QVQLVESGGGLVQAGGSLRLSCAASGRTFGYYAMGWYRPAPGKEGELVAVITWSGDSTYYADSVKGRFTISRDNAKNTVYLQMNSLKPEDTAVYYCNADSGNAGTAYDDYDYWGQGTQVTVSS”, for which the “polyreactivity (PSR sort gate)” value is on record as “low polyreactivity”.

Take “QVQLVESGGGFVQAGGSLRLSCAASGSTCDGYSMGWYRQAPGKERELVAGISTSGGSTYYADSVKGRFTISRDNAKNTVYLQMNSLKPEDTAVYYCAAEWFDQVKDRAADYISYEYWGQGTQVTVSS”: the “polyreactivity (PSR sort gate)” value is “low polyreactivity”.

As to “QVQLEESGGGLVQAGGSLRLSCAASGRTFQYYTMGWYRQAPGKEREFVAAIRDSGGSTYYADSVKGRFTISRDNAKNTVYLQMNSLKPEDTAVYYCNKVPNGPSNYDYWGQGTQVTVSS”, the “polyreactivity (PSR sort gate)” value is given as “high polyreactivity”.

Take “EVQLVESGGGLVQAGGSLRLSCAASGSIYGSYAKGWYRQAPGKERELVAGITYRGSSTYYADSVKGRFTISRDNAKYTVYLLMNSLKPEDTAVYYCAADPVFDEYDYWGQGTQVTVSS”: the “polyreactivity (PSR sort gate)” value was “low polyreactivity”.

As to “QVQLVESGGGLVQEGGSLRLSCAGSGRTFTFNVMGWYRQAPGKEREFVAAITGTDGSTYYADSVKGRFTISRDNAKNTVYLQMNSLKPEDTAVFYCAARYDWGYVDPGDYWGQGTQVTVSS”, the “polyreactivity (PSR sort gate)” value was “high polyreactivity”.

As to “QVQLVESGGGLVQAGGSLRLSCAASGFIFSTYAMGWYRQAPGKERELVSAISCSTGSTYYADSVKGRFTISRDNAKNTVYLQMNSLKPEDTAVYYCNALRRPSTEGRDYWGQGTQVTVSS”, the “polyreactivity (PSR sort gate)” value is given as “high polyreactivity”.

For “QVQLVESGGGLVQAGGSLRLSCAASGRILYKYSMGWYRQAPGKERELVAAINRSGGRTYYADSVKGRFTISRDNAKNTVYIQMNSLKPEDTAVYYCAARNPTSYGQFDYLGQGTQVTVSS”, the “polyreactivity (PSR sort gate)” value is recorded as “high polyreactivity”.

Take “QDQLVESGGGLVQAGGSLRLSCAASGRTFKTYAMGWYRQAPGKERELVAAISYSSGRTYYADSVKGRFTISRDNAKNTVYLQMNSLKPEDTAVYYCASLGSGVPRYYYWGQGTQVTVSS”: the “polyreactivity (PSR sort gate)” value is given as “high polyreactivity”.

With “QVQLVESGGGLVQAGGSLRLSCAASGRTFHYNVMGWYRQAPGKESELVAASTNTGGSTYYADSVKGRFTISRDNAKNTVYLQMNSLKPEDTAVYYCAAVIWGRRYGAYPYEYWGQGTQVTVSS”, the “polyreactivity (PSR sort gate)” value is recorded as “low polyreactivity”.
